Patent US20250152759A1, “SINGLE-DOMAIN ANTIBODIES AND VARIANTS THEREOF AGAINST MET” (Wisconsin Alumni Research Foundation, priority 2023, published 2025)
“Also recorded” adds a separate entry of the source. Read-outs that look alike come from different tables or passages of the source.

Columns and labels:
[1] = tested on: MET, AKT and ERK phosphorylation; experiment: Western blot of MET signaling, NSCLC and HeLa cell lines; assay type: cell-based, human; conditions: 5 nM, 4 h, positive control
Experimental: To determine if 1E7-Fc by itself was a therapeutic and inhibited MET signaling, as has been seen with other MET antibodies such as onartuzumab and emibetuzumab (De Mello et al. 2020), we performed a cell proliferation assay and Western blot to query effects of 1E7-Fc on cell behavior and downstream signaling pathways. Cell viability was measured using a panel of the same four cell lines. […] In contrast, treatment with the FDA-approved MET TKI, capmatinib, blocked MET, AKT, and ERK phosphorylation, as anticipated (FIG. 4B).
Cells were seeded in 10 cm dishes and treated with either control (PBS), 10 nM, or 100 nM 1E7-Fc when cells were reached about 75% confluency, and then cells were harvested 4 h after treatment. Five nM Capmatinib was used as a positive control. Cell lysates were generated as previously described (SenthilKumar et al. 2020).

[2] = tested on: MET, AKT and ERK phosphorylation; experiment: Immunoblot of MET downstream signaling, Detroit 562 and T-47D; assay type: cell-based, human; conditions: 5 nM, positive control
Experimental: To determine if 1E7-Fc by itself was therapeutic and inhibited MET signaling, both cell proliferation assays and western blotting examining MET downstream signaling were evaluated in Detroit […] cell and T-47D as a negative control. The MET tyrosine kinase inhibitor capmatinib was used as a positive control for MET downstream signaling.
Cells were seeded in 10-cm dishes and treated with either control (i.e., PBS), 10 nM, or 100 nM 1E7-Fc when cells reached about 75% confluency, and then cells were harvested 4, 24, or 48 h after treatment. Capmatinib (5 nM) was used as a positive control for inhibition of MET signaling. Cell lysates were prepared as previously described (Könning et al. 2017). Equal amounts of protein were analyzed by sodium dodecyl-sulfate polyacrylamide gel electrophoresis (SDS-PAGE), transferred to polyvinylidene fluoride membranes, and probed with specific primary antibodies. Targets were detected with horseradish peroxidase (HRP)-conjugated secondary antibodies (BioRad) using Enhanced Chemiluminescence western blot substrates (Pierce) and imaged on a LI-COR Odyssey Fc. The specific antibodies are as listed: MET, phospho-MET (Tyr1234/1235), AKT, phosphor-AKT (Ser473), p44/42 MAPK (Erk1/2), phosphor-p44/42 MAPK (Erk1/2) *Thr202/Try204), GAPDH.

[3] = target: T1, murine MET (Mus musculus, UniProt P16056); experiment: Dilution ELISA counter screen on murine MET; assay type: binding
T1 construct: biotin (biotinylated)
Text: (§1) Next, we evaluated the ability of the three unique VHH clones (1E7, 1A2, and 2G9) to bind murine and rhesus monkey MET by performing ELISA counter screens. […] The three clones were expressed and purified for additional testing to identify a lead VHH. Biolayer interferometry (BLI) was next used to determine the affinity of each VHH domain for MET (FIGS. 3B-D, Table 7). […] The BLI and dilution ELISA data combined determined that 1E7 was the lead clone to for development into a VHH-Fc targeting MET.
(§2) Dilution ELISA: MaxiSorp plates were prepared as described above. 50 μL of biotinylated human cMET, murine cMET, or rhesus macaque cMET was added to the wells. 1E7 monomeric VHH was serial diluted from 1 μM to 15.6 nM in PBS, 1% BSA < and 0.005% Tween20 and added to each well. Wells with protein but no 1E7 VHH were used as a negative control. 1E7 binding was detected, as described above.

[4] = target: T2, rhesus macaque MET (Macaca mulatta, UniProt F7H1K4); experiment: Dilution ELISA counter screen on rhesus macaque MET; assay type: binding
T2 construct: biotin (biotinylated)
Text: as §1, §2

[5] = target: T3, human MET (Homo sapiens, UniProt P08581); experiment: Biolayer interferometry (BLI) of VHH domains on human MET; assay type: binding; conditions: for Ka / Kd: BLI curve fit; for Ka: association rate; for binding affinity to human MET (in words): comparison of the three VHH clones
[6] = target: T3, human MET; experiment: Dilution ELISA on human MET; assay type: binding; design: Single-domain constructs specific to MET extracellular domain were identified from a naïve VHH antibody phage display library; biotin (biotinylated); conditions: for specificity for human versus rhesus macaque and murine MET: ELISA, FIG. 3A
Text: as §1, §2

[7] = dissociation rate, unit not given

T1 sequence (P16056 25-1379): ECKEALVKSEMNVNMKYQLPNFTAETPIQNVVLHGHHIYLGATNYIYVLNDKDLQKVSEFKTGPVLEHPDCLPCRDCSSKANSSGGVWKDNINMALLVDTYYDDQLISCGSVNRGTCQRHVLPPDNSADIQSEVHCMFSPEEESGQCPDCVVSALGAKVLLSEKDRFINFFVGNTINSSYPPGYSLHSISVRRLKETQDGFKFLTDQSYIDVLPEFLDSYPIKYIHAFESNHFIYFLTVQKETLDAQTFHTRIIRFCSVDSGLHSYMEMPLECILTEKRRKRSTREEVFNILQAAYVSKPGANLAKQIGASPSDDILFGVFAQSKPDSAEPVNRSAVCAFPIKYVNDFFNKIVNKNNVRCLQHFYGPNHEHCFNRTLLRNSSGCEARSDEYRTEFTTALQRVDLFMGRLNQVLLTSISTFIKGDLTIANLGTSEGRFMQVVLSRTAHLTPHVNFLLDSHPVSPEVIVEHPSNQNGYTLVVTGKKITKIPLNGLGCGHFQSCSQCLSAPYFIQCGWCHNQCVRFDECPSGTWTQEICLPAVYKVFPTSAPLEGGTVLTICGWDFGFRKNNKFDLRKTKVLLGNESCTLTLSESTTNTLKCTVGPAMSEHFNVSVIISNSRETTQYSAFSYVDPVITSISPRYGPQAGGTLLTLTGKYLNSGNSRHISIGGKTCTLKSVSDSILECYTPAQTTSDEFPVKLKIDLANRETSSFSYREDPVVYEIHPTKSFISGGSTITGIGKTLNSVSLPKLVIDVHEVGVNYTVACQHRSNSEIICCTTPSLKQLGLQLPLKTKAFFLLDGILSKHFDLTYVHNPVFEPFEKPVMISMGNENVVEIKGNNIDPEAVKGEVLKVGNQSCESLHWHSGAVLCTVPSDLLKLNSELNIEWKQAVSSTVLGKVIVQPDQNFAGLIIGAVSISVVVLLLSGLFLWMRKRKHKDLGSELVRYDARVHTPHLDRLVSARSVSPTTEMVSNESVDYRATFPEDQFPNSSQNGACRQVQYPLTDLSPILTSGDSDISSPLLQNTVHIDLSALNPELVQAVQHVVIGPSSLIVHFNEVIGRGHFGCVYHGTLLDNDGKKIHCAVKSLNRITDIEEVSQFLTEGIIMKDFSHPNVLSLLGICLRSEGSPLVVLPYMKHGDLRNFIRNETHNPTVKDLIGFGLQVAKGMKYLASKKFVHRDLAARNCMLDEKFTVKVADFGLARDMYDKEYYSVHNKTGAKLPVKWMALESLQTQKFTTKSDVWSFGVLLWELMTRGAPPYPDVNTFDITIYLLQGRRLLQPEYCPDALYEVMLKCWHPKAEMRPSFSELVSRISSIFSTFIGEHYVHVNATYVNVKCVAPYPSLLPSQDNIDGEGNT
T3 sequence (P08581 25-932 limits assumed): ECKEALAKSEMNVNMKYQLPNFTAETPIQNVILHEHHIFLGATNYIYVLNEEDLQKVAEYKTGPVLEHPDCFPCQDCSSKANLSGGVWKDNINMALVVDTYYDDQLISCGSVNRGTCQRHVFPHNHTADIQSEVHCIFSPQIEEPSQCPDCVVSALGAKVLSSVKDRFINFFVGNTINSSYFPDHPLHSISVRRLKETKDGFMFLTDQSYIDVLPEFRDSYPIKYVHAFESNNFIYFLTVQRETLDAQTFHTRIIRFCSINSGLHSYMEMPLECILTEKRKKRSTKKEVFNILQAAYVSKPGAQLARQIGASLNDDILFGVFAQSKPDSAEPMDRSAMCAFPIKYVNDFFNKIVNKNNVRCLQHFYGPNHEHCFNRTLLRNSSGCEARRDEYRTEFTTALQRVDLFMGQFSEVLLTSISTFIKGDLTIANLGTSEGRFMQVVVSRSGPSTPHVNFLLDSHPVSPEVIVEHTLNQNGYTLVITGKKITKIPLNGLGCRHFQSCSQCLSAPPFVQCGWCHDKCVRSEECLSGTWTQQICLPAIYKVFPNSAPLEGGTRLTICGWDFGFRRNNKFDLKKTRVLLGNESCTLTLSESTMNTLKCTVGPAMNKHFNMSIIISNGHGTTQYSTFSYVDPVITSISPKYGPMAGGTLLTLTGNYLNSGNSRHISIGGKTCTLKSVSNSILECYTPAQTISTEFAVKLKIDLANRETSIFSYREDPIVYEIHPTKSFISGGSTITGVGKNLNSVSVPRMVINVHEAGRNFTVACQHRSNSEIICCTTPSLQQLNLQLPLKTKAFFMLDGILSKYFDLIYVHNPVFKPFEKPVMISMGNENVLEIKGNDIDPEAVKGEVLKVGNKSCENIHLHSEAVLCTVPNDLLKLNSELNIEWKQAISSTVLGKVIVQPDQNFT
T2 sequence (F7H1K4 25-1381): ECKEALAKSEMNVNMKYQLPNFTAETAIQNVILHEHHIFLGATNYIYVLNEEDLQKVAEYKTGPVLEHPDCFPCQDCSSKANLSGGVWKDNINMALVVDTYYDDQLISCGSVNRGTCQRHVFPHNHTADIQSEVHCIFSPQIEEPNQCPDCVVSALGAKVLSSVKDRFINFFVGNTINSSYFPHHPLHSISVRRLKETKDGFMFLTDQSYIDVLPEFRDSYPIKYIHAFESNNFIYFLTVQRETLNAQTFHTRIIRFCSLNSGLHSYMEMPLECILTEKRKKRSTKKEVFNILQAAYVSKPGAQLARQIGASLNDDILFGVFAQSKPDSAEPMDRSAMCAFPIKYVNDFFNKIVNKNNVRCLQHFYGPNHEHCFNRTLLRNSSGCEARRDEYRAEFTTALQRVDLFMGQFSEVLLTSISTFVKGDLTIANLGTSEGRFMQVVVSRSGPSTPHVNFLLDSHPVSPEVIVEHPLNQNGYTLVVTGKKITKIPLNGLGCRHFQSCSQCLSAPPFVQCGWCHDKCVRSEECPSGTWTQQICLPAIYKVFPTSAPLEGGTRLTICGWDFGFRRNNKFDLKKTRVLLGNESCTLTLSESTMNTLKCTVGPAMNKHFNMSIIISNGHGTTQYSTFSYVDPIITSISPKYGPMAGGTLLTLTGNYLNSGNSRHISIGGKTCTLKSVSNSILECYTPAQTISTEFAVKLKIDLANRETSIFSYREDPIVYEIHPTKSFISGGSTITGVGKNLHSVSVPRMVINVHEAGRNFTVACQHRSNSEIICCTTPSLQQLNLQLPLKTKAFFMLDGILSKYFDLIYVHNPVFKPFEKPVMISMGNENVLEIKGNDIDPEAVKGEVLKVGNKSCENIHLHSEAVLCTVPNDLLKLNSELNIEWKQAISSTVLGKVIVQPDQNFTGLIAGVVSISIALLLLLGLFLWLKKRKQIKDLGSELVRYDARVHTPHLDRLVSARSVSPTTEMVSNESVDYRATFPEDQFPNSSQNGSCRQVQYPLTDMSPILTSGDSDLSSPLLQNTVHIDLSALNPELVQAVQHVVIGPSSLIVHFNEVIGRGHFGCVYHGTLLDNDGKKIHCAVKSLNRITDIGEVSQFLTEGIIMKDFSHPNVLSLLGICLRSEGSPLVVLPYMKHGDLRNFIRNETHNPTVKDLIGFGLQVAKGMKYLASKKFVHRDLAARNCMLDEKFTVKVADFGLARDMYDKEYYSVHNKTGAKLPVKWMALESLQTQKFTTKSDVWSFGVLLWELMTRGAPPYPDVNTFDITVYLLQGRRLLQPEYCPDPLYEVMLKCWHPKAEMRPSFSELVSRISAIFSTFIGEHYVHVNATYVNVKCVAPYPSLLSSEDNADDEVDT

Row | Molecule | effect on MET, AKT and ERK phosphorylation [1] | effect on phosphorylation of MET [2] | binding to murine MET [3] | binding to rhesus macaque MET [4] | kon and koff compared to the other clones ([5]; BLI) | Ka ([5]; unit not given) | Kd [5, 7] | Kd ([5]; nM, read-out: KD) [nM] | binding affinity to human MET (in words) [5] | ELISA signal on human MET ([6]; dilution ELISA, unpurified VHH serially diluted) | specificity for human versus rhesus macaque and murine MET [6]
1 | CNC(=O)c1ccc(-c2cnc3ncc(Cc4ccc5ncccc5c4)n3n2)cc1F [capmatinib, reference compound] | blocked | effectively blocked | – | – | – | – | – | – | – | – | –
2 | 1E7: anti-MET camelid VHH single-domain antibody from phage display, amino acid sequence SEQ ID NO:22 (protein) VHH: EVQLVESGGGLVQPGGSLRLSCEASGFNFERYDMSWVRQAPGKGPEWVSRLNSFGRSTYYLDSVKGRFTVSRDNAQNMLYLQMNNLKPEDTAVYYCARSTDVSPGLSSWWTYEYDVWGQGTQVTVSS | – | – | modest cross-reactivity; also recorded: minimal binding | modest cross-reactivity; also recorded: minimal binding | highest kon and the lowest koff | 1.445 × 10^5 | 4.045 × 10^−2 | 27 | high affinity; also recorded: highest binding affinity | strongest MET signal; also recorded: saturating ELISA signals | –
3 | 1A2: anti-MET camelid VHH single-domain antibody from phage display, amino acid sequence SEQ ID NO:24 (protein) VHH: EAQLVESGGGLVQPGGSLRLSCEASGFNFERYDMSWVRQAPGKGPEWVSRLNSFGRSTYYLDSVKGRFTVSRDTAKSTFYLQMNNLKPEDAGVYYCARSTDVSPGLSSWWTYEYDVWGQGTQVTVSS | – | – | modest cross-reactivity | modest cross-reactivity | – | 1.865 × 10^5 | 2.869 × 10^−2 | 43 | high affinity; also recorded: weaker binding affinities | – | did not show clear specificity
4 | 2G9: anti-MET camelid VHH single-domain antibody from phage display, amino acid sequence SEQ ID NO:26 (protein) VHH: EVQLVESGGALVQPGGSLRLSCAASGFTFGAYDMVWVRHATGKGPEWISFISNGGEEVSYASSVKDRFTISRDNAQNMLYLQMNNLKPEDTAVYYCARSTDVSPGLSSWWTYEYDVWGQGTLVTVSS | – | – | modest cross-reactivity | modest cross-reactivity | – | 1.000 × 10^4 | 1.500 × 10^−3 | 159 | high affinity; also recorded: weaker binding affinities | – | did not show clear specificity
